Experimental data from patent US20220259289A1 (Janssen / Centocor, published 2022).
Substitutions are numbered along the chain they refer to.

B1: ISOP120ER5P1B12 (designed binder, not shown: small tags and cut ends)
chain: LPAPKNLVVSRVTEDSARLSWTAPDAAFDSFAIYYIEWTAYGEAIVLTVPGSERSYDLTGLKPGTEYVVRISGVKCGIVSFPLSAIFTT
notes: FN3 domain (Centyrin); tested as E. coli lysate
B2: ISOP120FR5P1A6 (designed binder, not shown: small tags and cut ends)
chain: LPAPKNLVVSRVTEDSARLSWTAPDAAFDSFIIRYLEDISYGEAIVLTVPGSERSYDLTGLKPGTEYHVGIEGVKGGNVSFPLSAIFTT
notes: as for B1
B3: ISOP120ER5P1F4 (designed binder, not shown: small tags and cut ends)
chain: B2 chain with I32V, L36I, I39T, S40V, Y41M, G70S, N78P, V79S, F81L
notes: as for B1
B4: ISOP120FR5P1H6 (designed binder, not shown: small tags and cut ends)
chain: B2 chain with I32G, R34P, S40E, Y41V, T59A, E72Y, N78E, V79Q
notes: as for B1
B5: ISOP120HR5P1B5 (designed binder, not shown: small tags and cut ends)
chain: B2 chain with L36I, D38E, I39G, S40Y, N78Y, V79Y, F81Y
notes: as for B1
B6: ISOP120ER5P1H4 (designed binder, not shown: small tags and cut ends)
chain: B2 chain with I32N, R34M, I39V, S40Q, Y41C, E72N, N78L, V79R
notes: as for B1
B7: ISOP120ER5P1E5 (designed binder, not shown: small tags and cut ends)
chain: B2 chain with I32R, R34S, I39V, S40Y, E72H, N78I, V79D
notes: as for B1
B8: ISOP120HR5P1H8 (designed binder, not shown: small tags and cut ends)
chain: LPAPKNLVVSRVTEDSARLSWTAPDAAFDSFDIYYYELRLGGEAIVLTVPGSERSYDLTGLKPGTEYLVTIYGVKGGYYSGPLSAIFTT
notes: as for B1
B9: ISOP120ER5P1A7 (designed binder, not shown: small tags and cut ends)
chain: LPAPKNLVVSRVTEDSARLSWTAPDAAFDSFNIGYYERIIPGEAIVLTVPGSERSYDLTGLKPGTEYSVLICGVKGGKGSIPLSAIFTT
notes: as for B1
B10: ISOP120AR5P1B5 (designed binder, not shown: small tags and cut ends)
chain: LPAPKNLVVSRVTEDYARLSWKYGEHIIWFDSFLIQYQESEKVGEAIVLTVPGSERSYDLTGLKPGTEYTVSIYGVKGQHDHDSNPLSAIFTT
notes: as for B1
B11: ISOP120HR5P1E7 (designed binder, not shown: small tags and cut ends)
chain: LPAPKNLVVSRVTEDSARLSWTAPDAAFDSFQIYYLEQLGYGEAIVLTVPGSERSYDLTGLKPGTEYLVTIYGVKVCEQSYPLSAIFTT
notes: as for B1
B12: ISOP120ER5P1E10 (designed binder, not shown: small tags and cut ends)
chain: LPAPKNLVVSRVTEDSARLSWTAPDAAFDSFEIYYMEDFHSGEAIVLTVPGSERSYDLTGLKPGTEYWVTIYGVEGGTGSLPLSAIFTT
notes: as for B1

Experiments:
Assay in all cases: ELISA, bacterial lysate on plate-bound antigen, luminescence
[1] = biological target: T1, human serum albumin (human, UniProt P02768 25-609)
T1 construct: Negative control antigen of the screening ELISA; also called HSA
How it was run: (§1)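 Biotinylated CD137-Fc, an unrelated Fc-fusion protein or human serum albumin captured 1 h on streptavidin plates blocked in Starting Block T20; diluted bacterial lysate applied 1 h. Bound binders detected with HRP-conjugated anti-Centyrin antibody (PAB25) for 1 h, then POD substrate read-out.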

[2] = biological target: T2, recombinant biotinylated human CD137 protein (Fc-fusion protein, R&D Systems 838-4B) (human, UniProt Q07011 24-186, biotinylated (site not stated))
T2 construct: Bought Fc fusion; The ELISA used the same antigen as the panning; also called CD137-Fc; biotinylated CD137; not shown: Fc part of the bought fusion protein
How it was run: as §1

[3] = biological target: unrelated Fc-fused recombinant protein (negative control)

T1 sequence (P02768 25-609 limits assumed): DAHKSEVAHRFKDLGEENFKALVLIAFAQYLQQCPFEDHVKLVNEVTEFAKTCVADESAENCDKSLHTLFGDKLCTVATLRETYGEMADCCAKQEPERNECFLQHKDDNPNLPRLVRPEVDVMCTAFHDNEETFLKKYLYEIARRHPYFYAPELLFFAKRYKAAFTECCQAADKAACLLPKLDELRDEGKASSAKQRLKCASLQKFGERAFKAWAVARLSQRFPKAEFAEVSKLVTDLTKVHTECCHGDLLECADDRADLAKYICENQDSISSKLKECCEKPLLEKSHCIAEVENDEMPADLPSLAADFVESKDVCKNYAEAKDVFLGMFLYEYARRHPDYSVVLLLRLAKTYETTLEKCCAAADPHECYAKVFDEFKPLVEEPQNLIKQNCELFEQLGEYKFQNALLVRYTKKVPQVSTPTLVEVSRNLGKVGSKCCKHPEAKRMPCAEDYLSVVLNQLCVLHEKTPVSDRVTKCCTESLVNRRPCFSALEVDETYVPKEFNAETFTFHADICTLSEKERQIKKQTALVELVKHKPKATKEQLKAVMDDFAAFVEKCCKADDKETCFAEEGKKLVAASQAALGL

Binder | ELISA HSA (RLU) [1] | ELISA CD137-Fc (RLU) [2] | ELISA Fc Control (RLU) [3]
B1 | 800 RLU | 1.44e+06 RLU | 720 RLU
B2 | 320 RLU | 1.4e+06 RLU | 400 RLU
B3 | 400 RLU | 537000 RLU | 320 RLU
B4 | 320 RLU | 357000 RLU | 320 RLU
B5 | 240 RLU | 520000 RLU | 320 RLU
B6 | 560 RLU | 1.07e+06 RLU | 480 RLU
B7 | 320 RLU | 413000 RLU | 240 RLU
B8 | 400 RLU | 2.22e+06 RLU | 320 RLU
B9 | 400 RLU | 1.11e+06 RLU | 400 RLU
B10 | 320 RLU | 501000 RLU | 400 RLU
B11 | 480 RLU | 363000 RLU | 480 RLU
B12 | 400 RLU | 810000 RLU | 720 RLU
